Primed or numbered codes have the meaning given here. Biotin′ = not defined here
T1: LRRC25(21-40) biotin peptide (human, not fully specified; N-terminal NH2; C-terminal GGK-Biotin; native Cys changed to Ser)
T1 peptide: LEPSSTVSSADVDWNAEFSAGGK

T2: LRRC25(81-100) biotin peptide (human, not fully specified; N-terminal acetyl; C-terminal GGK-Biotin)
T2 peptide: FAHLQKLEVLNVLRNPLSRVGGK

T3: LRRC25(141-159) biotin peptide (human, not fully specified; N-terminal acetyl; C-terminal GGK-Biotin; native Cys changed to Ser)
T3 peptide: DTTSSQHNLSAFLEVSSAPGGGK

T4: LRRC25(150-165) biotin peptide (human)
T4 peptide: Ac-SAFLEVSSAPGLASATGG-{Biotin′}

T5: LRRC25(126-145) biotin peptide (human, not fully specified; N-terminal acetyl; C-terminal GGK-Biotin; native Cys changed to Ser)
T5 peptide: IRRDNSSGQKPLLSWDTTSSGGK

T6: LRRC25(111-130) biotin peptide (human, not fully specified; N-terminal acetyl; C-terminal GGK-Biotin; native Cys changed to Ser)
T6 peptide: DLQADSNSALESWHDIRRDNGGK

T7: LRRC25(51-69) biotin peptide (human, not fully specified; N-terminal acetyl; C-terminal GGK-Biotin)
T7 peptide: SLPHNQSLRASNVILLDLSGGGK

T8: LRRC25(36-55) biotin peptide (human, not fully specified; N-terminal NH2; C-terminal GGK-Biotin; native Cys changed to Ser)
T8 peptide: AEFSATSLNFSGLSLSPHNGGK

T9: LRRC25(66-85) biotin peptide (human, not fully specified; N-terminal acetyl; C-terminal GGK-Biotin)
T9 peptide: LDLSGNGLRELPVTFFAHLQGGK

T10: LRRC25(96-115) biotin peptide (human, not fully specified; N-terminal acetyl; C-terminal GGK-Biotin; native Cys changed to Ser)
T10 construct: also called Biotin LRRC25 (96-115) peptide
T10 peptide: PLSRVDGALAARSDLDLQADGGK


What was measured:
[1] = biological target: T1, LRRC25(21-40) biotin peptide; assay: peptide ELISA
Method: (§1) To establish if functional chimera anti-LRRC25 antibodies recognize particular regions of LRRC25, ELISA experiments were performed using 10 plate-immobilized 16- to 20-mer overlapping LRRC25(ECD) biotin peptides (Table 7). Biotinylated human LRRC25-His served as a positive control. A typical ELISA was performed by coating overnight at 4° C., 3 ug/mL/25 ul per well of streptavidin (Jackson Immunoresearch, Cat. #016-030-084) in PBS in half-area high binding microtiter wells (Corning Cat. #3690). […] Biotin peptides or biotinylated human LRRC25-His protein were added in duplicate (2 ug/mL/25 ul per well) in assay buffer (blocking buffer containing 0.05% tween 20) and the plate incubated for 45 min at 37° C. The plate was washed as before, 20 nM anti-LRRC25 antibodies in assay buffer added in duplicate into appropriate wells, and the plate incubated as before. The plate was washed and HRP-conjugated secondary antibody in assay buffer added [25 ul per well; goat anti-human IgG (Jackson Immunoresearch, Cat. #715-035-150)], and incubated as before. Antibody bound to plate-immobilized peptide(s) or protein was determined at A450 nm using HRP substrate (3,3′,5,5′-tetramethylbenzidine (TMB); eBioscience; Cat. #00-4201-56); 100 μl/well).

[2] = biological target: T2, LRRC25(81-100) biotin peptide; assay: peptide ELISA
Method: as §1

[3] = biological target: T3, LRRC25(141-159) biotin peptide; assay: peptide ELISA
Method: as §1

[4] = biological target: T4, LRRC25(150-165) biotin peptide; assay: peptide ELISA
Method: as §1

[5] = biological target: T5, LRRC25(126-145) biotin peptide; assay: peptide ELISA
Method: as §1

[6] = biological target: T6, LRRC25(111-130) biotin peptide; assay: peptide ELISA
Method: as §1

[7] = biological target: T7, LRRC25(51-69) biotin peptide; assay: peptide ELISA
Method: as §1

[8] = biological target: T8, LRRC25(36-55) biotin peptide; assay: peptide ELISA
Method: as §1

[9] = biological target: T9, LRRC25(66-85) biotin peptide; assay: peptide ELISA
Method: as §1

[10] = biological target: T10, LRRC25(96-115) biotin peptide; assay: ELISA, 20 nM antibody, biotinylated antigen on streptavidin plate
Method: as §1

[11] = biological target: T11, biotinylated human LRRC25-His protein (human, UniProt Q8N386 21-165, biotinylated (sites not given)); assay: as above
T11 construct: also called Biotin LRRC25-His; biotinylated LRRC25 protein
Method: as §1

[12] = biological target: T12, His-tagged human LRRC25 extracellular domain protein, human LRRC25-His (human, UniProt Q8N386 21-165); assay: ELISA, plate-immobilized antigen
T12 construct: The entry holds the extracellular domain, a GSG linker and the His tag; also called LRRC25(ECD)-HIS
Method: (§2) To establish the relative binding strengths of anti-LRRC25 antibodies against human LRRC25, and their cross-reactivity with cynomolgus monkey LRRC25, antibody binding curve analyses were performed and EC50 values against plate-immobilized recombinant human and cyno LRRC25 proteins were determined.
(§3) A typical ELISA was performed by coating overnight in PBS, pH 7.4, at 4° C. in high binding microtiter wells with 1 ug/mL/100 ul per well of human LRRC25-His or cyno LRRC25-His. An anti-human LRRC25 antibody (2A3, LS Bio, LS-C174039-100) and anti-HIS-HRP (Miltenyi Biotec; 130-092-783) served as coating controls for the human and cyno LRRC25 proteins, respectively. […] Anti-LRRC25 antibodies were added (100 ul per well) at 500 nM and serially diluted 3-fold in assay buffer (1% skimmed milk in PBS, pH 7.4). The plate was incubated with gentle agitation for 1 h at room temperature. The plate was washed 3× and HRP-conjugated secondary antibody in assay buffer added [100 ul per well; goat anti-human IgG (Jackson Immunoresearch, cat #715-035-150)], and the plate was incubated as before. Antibody bound to plate-immobilized LRRC25(ECD)-HIS was determined at A450 nm using HRP substrate (3,3′,5,5′-tetramethylbenzidine (TMB); eBioscience; 00-4201-56); 100 μl/well).

[13] = biological target: T13, His-tagged cynomolgus monkey LRRC25 extracellular domain protein, cyno LRRC25-His (cynomolgus monkey); assay: ELISA, plate-immobilized antigen
T13 construct: The entry holds the extracellular domain, a GSG linker and the His tag
Method: as §2, §3

[14] = biological target: T10, LRRC25(96-115) biotin peptide; assay: peptide ELISA
Method: as §1

[15] = biological target: T13, His-tagged cynomolgus monkey LRRC25 …; assay: ELISA, plate-immobilized cyno LRRC25-His
Method: as §3

T13 sequence (chain, as listed by the source limits assumed): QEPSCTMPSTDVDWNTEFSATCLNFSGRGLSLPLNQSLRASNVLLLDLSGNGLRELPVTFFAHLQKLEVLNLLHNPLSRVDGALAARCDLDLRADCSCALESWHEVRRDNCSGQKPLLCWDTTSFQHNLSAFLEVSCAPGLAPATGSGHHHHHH
T12 sequence (Q8N386 other isoform, or with tags, fused parts or gaps): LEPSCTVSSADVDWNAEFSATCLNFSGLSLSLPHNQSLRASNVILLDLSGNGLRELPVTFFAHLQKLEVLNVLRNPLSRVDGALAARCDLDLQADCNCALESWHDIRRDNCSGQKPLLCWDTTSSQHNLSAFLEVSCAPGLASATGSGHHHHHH
T11 sequence (Q8N386 other isoform, or with tags, fused parts or gaps): as above

Binder	binding result [1]	binding result [2]	binding result [3]	binding result [4]	binding result [5]	binding result [6]	binding result [7]	binding result [8]	binding result [9]	absorbance (A450) [10] [A450]	absorbance (A450) [11] [A450]	EC50 [12] [nM]	EC50 [13] [nM]	binding result [14]	binding result [15]
anti-LRRC25 chimeric antibody 3E08 (antibody, human IgG4, V domains shown) VH: EVKLLESGGGLVKPGGSLKLSCAASGFTLSSYAMSWVRQTPEKRLEWVASISRSNTTYYPDSVKGRFTISRDNAKNILYLQMSSLRSEDTAMYYCARGVLLRPFASWGQGTLVTVSA VL: DIVMTQDAFSNPVTLGTSASISCRSSKSLLHSNGITYLYWYLQKPGQSPQLLIYQMSNLASGVPDRFSSSGSGTDFTLRISRVEAEDVGVYYCAQNLELPLTFGAGTKLELKR	no binding (tested: 20 nM)	no binding (tested: 20 nM)	no binding (tested: 20 nM)	no binding (tested: 20 nM)	no binding (tested: 20 nM)	no binding (tested: 20 nM)	no binding (tested: 20 nM)	no binding (tested: 20 nM)	no binding (tested: 20 nM)	0.052	0.152	~1000	–	no binding (tested: 20 nM)	no binding (tested: 500 nM)
anti-LRRC25 chimeric antibody 1C10 (antibody, human IgG4, V domains shown) VH: EEKLDESGGGLVKPGGSLKLSCAASGFTFSSYAMSWVRQTPEKRLEWVASISRGGNTYYPDSVKGRFTISRDNARNILYLQMSSLRSEDTAMFYCARGDYGSSLFAYWGQGTLVTVSA VL: DIVMTQAAFSNPVTLGTSASISCRSSKSLLHSNGITYLYWYLQKPGQSPQLLIYQMSNLASGVPDRFSSSGSGTDFTLRISRVEAEDVGVYYCAQNLELPFTFGSGTKLEIKR	no binding (tested: 20 nM)	no binding (tested: 20 nM)	no binding (tested: 20 nM)	no binding (tested: 20 nM)	no binding (tested: 20 nM)	no binding (tested: 20 nM)	no binding (tested: 20 nM)	no binding (tested: 20 nM)	no binding (tested: 20 nM)	0.334	0.421	73.4	~1000	–	–

Now those with a lower EC50 [12], led by results:

binding result [1]	binding result [2]	binding result [3]	binding result [4]	binding result [5]	binding result [6]	binding result [7]	binding result [8]	binding result [9]	absorbance (A450) [10] [A450]	absorbance (A450) [11] [A450]	EC50 [12] [nM]	EC50 [13] [nM]	binding result [14]	binding result [15]	Binder
no binding (tested: 20 nM)	no binding (tested: 20 nM)	no binding (tested: 20 nM)	no binding (tested: 20 nM)	no binding (tested: 20 nM)	no binding (tested: 20 nM)	no binding (tested: 20 nM)	no binding (tested: 20 nM)	no binding (tested: 20 nM)	2.33	0.456	4.1	> 500	–	–	anti-LRRC25 chimeric antibody 1A01 (antibody, human IgG4, V domains shown, also called mAb 1A01) VH: EVKLLESGGGLVKPGGSLKLSCAASGFTFSSYAMSWVRQTPEKRLEWVASISRGGNTYYPDSVKGRFTISRDNARNILYLQMSSLRSEDTAMYYCARGNYGNSPFAYWGQGTLVTVSA VL: DIVMTQSPASLAVSLGQRATISCRASKSVSTSGYSYMHWYQQKPGQPPKLLIYLASNLESGVPARFSGSGSGTDFTLNIHPVEEEDAATYYCQHSRELPFTFGSGTKLEIKR
no binding (tested: 20 nM)	no binding (tested: 20 nM)	no binding (tested: 20 nM)	no binding (tested: 20 nM)	no binding (tested: 20 nM)	no binding (tested: 20 nM)	no binding (tested: 20 nM)	no binding (tested: 20 nM)	no binding (tested: 20 nM)	2.65	1.89	0.58	~500	–	–	anti-LRRC25 chimeric antibody 1E11 (antibody, human IgG4, V domains shown) VH: EVQLLETGGGLVKPGGSLKLSCAASGFTFSSSAMSWVRQTPEKRLEWVTSISRGGNTYYPDSVKGRFTISRDNARNILYLQMSSLRSEDTAMYYCARGQELRLFAYWGQGTLVTVSA VL: DIVMTQDAFSNPVTLGTSASISCRSSKSLLHSNGITYLYWYLQKPGQSPQLLIYQMSNLASGVPDRFSSSGSGTDFTLRISRVEAEDVGVYYCAQNLELPFTFGSGTKLEIKR

— patent US20220363752A1 (VERSEAU THERAPEUTICS, published 2022)
